{"source": "the supplement of paper PMC12042874", "test": "amyloid nucleation score (Sup35N fusion, yeast selection) (log enrichment); library NNK3; higher = more nucleation; inactive = no reads after selection", "in_short": "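Using DiMSum, nucleation scores were taken as the log enrichment of output over input reads, centred on the mode score of non-aggregating sequences. The input and output reads came from Illumina sequencing of plasmid inserts, with sequences under 100 input reads excluded. The yeast were psi-negative, expressed Sup35N fused to peptides of 20 random codons, were induced with 100 μM copper sulfate for 24 hours, and were grown 7 days at 30°C on medium lacking adenine and uracil.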", "note": "± gives the uncertainty stated by the source.", "data": [{"substance": "HTFDDSTCSYTWVYFHIWCI", "values": [{"measurement": "amyloid nucleation score", "value": "inactive"}]}, {"substance": "HTYLLLRDNLLFTVIHTPRN", "values": [{"measurement": "amyloid nucleation score", "value": "2.02 ± 0.075"}]}, {"substance": "HVARFMLNRYLLFGEPYMLK", "values": [{"measurement": "amyloid nucleation score", "value": "inactive"}]}, {"substance": "HVCWVWMCEVFKAAIPSVTD", "values": [{"measurement": "amyloid nucleation score", "value": "inactive"}]}, {"substance": "HVIKNFSADISIDDFFYLGM", "values": [{"measurement": "amyloid nucleation score", "value": "inactive"}]}, {"substance": "HVILICLSFYTKFICPIPEV", "values": [{"measurement": "amyloid nucleation score", "value": "inactive"}]}, {"substance": "HVSSKASLLPMYRY", "values": [{"measurement": "amyloid nucleation score", "value": "0.237 ± 0.75"}]}, {"substance": "HVTPRKN", "values": [{"measurement": "amyloid nucleation score", "value": "inactive"}]}, {"substance": "HWCRQNNSIFMRS", "values": [{"measurement": "amyloid nucleation score", "value": "inactive"}]}, {"substance": "HWGRDFLGFVTAFDGCVSQL", "values": [{"measurement": "amyloid nucleation score", "value": "inactive"}]}, {"substance": "HWLFVVKMMKS", "values": [{"measurement": "amyloid nucleation score", "value": "-0.093 ± 0.41"}]}, {"substance": "HYLWCVYII", "values": [{"measurement": "amyloid nucleation score", "value": "inactive"}]}, {"substance": "HYNVPL", "values": [{"measurement": "amyloid nucleation score", "value": "inactive"}]}, {"substance": "HYRVLPPAVVRRRVMLL", "values": [{"measurement": "amyloid nucleation score", "value": "inactive"}]}, {"substance": "HYVPVASDVRGMIYFRSFEW", "values": [{"measurement": "amyloid nucleation score", "value": "inactive"}]}, {"substance": "HYWYE", "values": [{"measurement": "amyloid nucleation score", "value": "inactive"}]}, {"substance": "IACFMI", "values": [{"measurement": "amyloid nucleation score", "value": "inactive"}]}, {"substance": "IAGTIRVFYVFKAYADSPTW", "values": [{"measurement": "amyloid nucleation score", "value": "inactive"}]}, {"substance": "IAHPSHGS", "values": [{"measurement": "amyloid nucleation score", "value": "0.432 ± 0.22"}]}, {"substance": "IASEFVRGKHSHYM", "values": [{"measurement": "amyloid nucleation score", "value": "inactive"}]}, {"substance": "IASSSWHVMIWYSPRSCVFS", "values": [{"measurement": "amyloid nucleation score", "value": "inactive"}]}, {"substance": "IAVVTSNWVADLSPGNHTCM", "values": [{"measurement": "amyloid nucleation score", "value": "-0.49 ± 0.96"}]}, {"substance": "ICDLSREYSNHGFVLMDEIR", "values": [{"measurement": "amyloid nucleation score", "value": "inactive"}]}, {"substance": "ICHFTLM", "values": [{"measurement": "amyloid nucleation score", "value": "inactive"}]}, {"substance": "ICIHLELRILCPHHAPDGSL", "values": [{"measurement": "amyloid nucleation score", "value": "-0.118 ± 0.43"}]}, {"substance": "ICKRYYLPINFRG", "values": [{"measurement": "amyloid nucleation score", "value": "inactive"}]}, {"substance": "ICLAFRPECCCGIWTDKRIG", "values": [{"measurement": "amyloid nucleation score", "value": "1.74 ± 0.088"}]}, {"substance": "ICTCKWRLTLEQTSFVDGLT", "values": [{"measurement": "amyloid nucleation score", "value": "inactive"}]}, {"substance": "ICTGDSNNSGYVCQLVTKEE", "values": [{"measurement": "amyloid nucleation score", "value": "inactive"}]}, {"substance": "IDCLLLFSIGEVLKSGNNSR", "values": [{"measurement": "amyloid nucleation score", "value": "0.335 ± 0.17"}]}, {"substance": "IDGTCFARIFRCCIFYLR", "values": [{"measurement": "amyloid nucleation score", "value": "inactive"}]}, {"substance": "IDPQS", "values": [{"measurement": "amyloid nucleation score", "value": "inactive"}]}, {"substance": "IDTTQVLGMNS", "values": [{"measurement": "amyloid nucleation score", "value": "inactive"}]}, {"substance": "IDVKMGSYFVYHDGLFIFRV", "values": [{"measurement": "amyloid nucleation score", "value": "inactive"}]}, {"substance": "IDYSNVYSISRPSMFCWRNN", "values": [{"measurement": "amyloid nucleation score", "value": "inactive"}]}, {"substance": "IECRARRSVCLL", "values": [{"measurement": "amyloid nucleation score", "value": "inactive"}]}, {"substance": "IEFMCLHGKVTLITIVF", "values": [{"measurement": "amyloid nucleation score", "value": "inactive"}]}, {"substance": "IEGSKSDNIGIVHDFMFES", "values": [{"measurement": "amyloid nucleation score", "value": "inactive"}]}, {"substance": "IENNSPLSSFLGYGKCIP", "values": [{"measurement": "amyloid nucleation score", "value": "inactive"}]}, {"substance": "IFASDTVL", "values": [{"measurement": "amyloid nucleation score", "value": "inactive"}]}, {"substance": "IFIMKARSKFPRVPFFQEFP", "values": [{"measurement": "amyloid nucleation score", "value": "1.23 ± 0.13"}]}, {"substance": "IFKNTVTLRN", "values": [{"measurement": "amyloid nucleation score", "value": "inactive"}]}, {"substance": "IFLCLSICMFRPFRMVLS", "values": [{"measurement": "amyloid nucleation score", "value": "inactive"}]}, {"substance": "IFNLHWDTMLSIHMSIDALR", "values": [{"measurement": "amyloid nucleation score", "value": "1.91 ± 0.1"}]}, {"substance": "IFTVCHVGSACSGNCTGQ", "values": [{"measurement": "amyloid nucleation score", "value": "3.01 ± 0.06"}]}, {"substance": "IFVFLHLHLIWFYSSSWLMD", "values": [{"measurement": "amyloid nucleation score", "value": "inactive"}]}, {"substance": "IFVGVSYVHFRLEH", "values": [{"measurement": "amyloid nucleation score", "value": "1.8 ± 0.099"}]}, {"substance": "IFVLLVRANV", "values": [{"measurement": "amyloid nucleation score", "value": "-0.449 ± 0.7"}]}, {"substance": "IFVLQGRKYSSTSWLITHHC", "values": [{"measurement": "amyloid nucleation score", "value": "inactive"}]}, {"substance": "IFVVP", "values": [{"measurement": "amyloid nucleation score", "value": "inactive"}]}, {"substance": "IFWVSRSDA", "values": [{"measurement": "amyloid nucleation score", "value": "inactive"}]}, {"substance": "IFYCLSYLGTSVVEIHCLYA", "values": [{"measurement": "amyloid nucleation score", "value": "inactive"}]}, {"substance": "IFYVLSTMNDSIVV", "values": [{"measurement": "amyloid nucleation score", "value": "inactive"}]}, {"substance": "IGAWHVLITGCTFQEIPR", "values": [{"measurement": "amyloid nucleation score", "value": "1.88 ± 0.064"}]}, {"substance": "IGCEQDADNYNRSWWIWMKF", "values": [{"measurement": "amyloid nucleation score", "value": "inactive"}]}, {"substance": "IGEPCLWNSV", "values": [{"measurement": "amyloid nucleation score", "value": "inactive"}]}, {"substance": "IGITHFRTCDGHNVRGRNRW", "values": [{"measurement": "amyloid nucleation score", "value": "inactive"}]}, {"substance": "IGKKVCMCRDKGGLIGLRGG", "values": [{"measurement": "amyloid nucleation score", "value": "inactive"}]}, {"substance": "IGLFNTNVWKCFDCDTPAMF", "values": [{"measurement": "amyloid nucleation score", "value": "inactive"}]}, {"substance": "IGLLYLHLPNIALINRSVVG", "values": [{"measurement": "amyloid nucleation score", "value": "inactive"}]}, {"substance": "IGMYNEGFGMVLMTCPRLFF", "values": [{"measurement": "amyloid nucleation score", "value": "2.09 ± 0.077"}]}, {"substance": "IGRPGVRYNLKCRGRIRG", "values": [{"measurement": "amyloid nucleation score", "value": "inactive"}]}, {"substance": "IGRVNSSGVQDGSHCYECES", "values": [{"measurement": "amyloid nucleation score", "value": "0.481 ± 0.27"}]}, {"substance": "IGVDVTYSKGLSGTIDKSLG", "values": [{"measurement": "amyloid nucleation score", "value": "inactive"}]}, {"substance": "IHILFGTSWLMTRLFCLVK", "values": [{"measurement": "amyloid nucleation score", "value": "inactive"}]}, {"substance": "IHKTFLTL", "values": [{"measurement": "amyloid nucleation score", "value": "inactive"}]}, {"substance": "IHLRDMSLS", "values": [{"measurement": "amyloid nucleation score", "value": "0.591 ± 0.16"}]}, {"substance": "IIFFWILS", "values": [{"measurement": "amyloid nucleation score", "value": "0.16 ± 0.29"}]}, {"substance": "IIMISLITYFLSLNTSKLYQ", "values": [{"measurement": "amyloid nucleation score", "value": "inactive"}]}, {"substance": "IIRCKMM", "values": [{"measurement": "amyloid nucleation score", "value": "-0.538 ± 0.57"}]}, {"substance": "IIRMMFISFN", "values": [{"measurement": "amyloid nucleation score", "value": "1.84 ± 0.076"}]}, {"substance": "IISMPLGACMKAARMSF", "values": [{"measurement": "amyloid nucleation score", "value": "inactive"}]}, {"substance": "IITSLK", "values": [{"measurement": "amyloid nucleation score", "value": "0.154 ± 0.27"}]}, {"substance": "IIVTL", "values": [{"measurement": "amyloid nucleation score", "value": "inactive"}]}, {"substance": "IIYPAMTHFLSYMYRVNCVS", "values": [{"measurement": "amyloid nucleation score", "value": "inactive"}]}, {"substance": "IIYVNTSEGVSVFRNWSDDV", "values": [{"measurement": "amyloid nucleation score", "value": "inactive"}]}, {"substance": "IKATWRSFMCVIFNLLLLP", "values": [{"measurement": "amyloid nucleation score", "value": "-0.184 ± 1.3"}]}, {"substance": "IKCMNTLTDCCGMV", "values": [{"measurement": "amyloid nucleation score", "value": "inactive"}]}, {"substance": "IKCVCFLCPNQ", "values": [{"measurement": "amyloid nucleation score", "value": "1.02 ± 0.19"}]}, {"substance": "IKFGLTYSRSTMSGHSLKGY", "values": [{"measurement": "amyloid nucleation score", "value": "inactive"}]}, {"substance": "IKLARSAYQLSSVNMRVKVI", "values": [{"measurement": "amyloid nucleation score", "value": "inactive"}]}, {"substance": "IKLHGQAHLIMSTLLPYMHK", "values": [{"measurement": "amyloid nucleation score", "value": "inactive"}]}]}
